The target in test [1] is T1, FLAG-HSP90AB1 (WT) (human, UniProt P08238 1-724).
T1 construct: Expressed in cells together with HA-SMYD2 (so it may be methylated by SMYD2 in the assay); not shown: FLAG tag
Description: anti-FLAG immunoprecipitation from 293T cells, Western blot with anti-Cdc37 (FIG. 5D); the wild type is the reference. The protocol:
(§1) Then, cell lysates were immunoblotted with anti-FLAG, anti-SMYD2 and anti-ACTB (an internal control) antibodies. Part B depicts the results of immunoprecipitation analysis using 293T cells co-transfected with FLAG-Mock or FLAG-HSP90AB1 (WT) and HA-HSP90AB1 (WT or K531A/K574A) expression vectors in the presence of an HA-SMYD2 expression vector. Immunoprecipitation was performed using anti-FLAG^{(registered trademark)} M2 agarose beads, and samples were immunoblotted with anti-FLAG and anti-HA antibodies. Part C depicts the results of immunoprecipitation analysis using 293T cells co-transfected with FLAG-Mock or FLAG-HSP90AB1 (WT) and HA-HSP90AB1 (WT, K531A or K574A) expression vectors in the presence of an HA-SMYD2 expression vector. Immunoprecipitation was performed using anti-FLAG^{(registered trademark)} M2 agarose beads, and samples were immunoblotted with anti-FLAG and anti-HA antibodies. Part D and E depict that the methylation of K574 on HSP90AB1 is important for binding to some co-chaperones. 293T cells were transfected with FLAG-HSP90AB1 (WT) or FLAG-HSP90AB1 (K531A/K574A) (D), FLAG-Mock, FLAG-HSP90AB1 (WT), FLAG-HSP90AB1 (K531A) or FLAG-HSP90AB1 (K574A) (E) expression vectors, in the presence of an HA-SMYD2 expression vector. […]

For test [2], the target named is T1, FLAG-HSP90AB1 (WT). In words: anti-FLAG immunoprecipitation from 293T cells, Western blot with anti-p23 (FIG. 5D); the wild type is the reference. The protocol:
as §1

The target in test [3] is T2, FLAG-HSP90AB1 (K531A/K574A) (human, UniProt P08238 1-724).
T2 construct: Expressed in 293T cells in the presence of HA-SMYD2; also called K531A/K574A substitution of HSP90AB1; not shown: FLAG tag
Description: anti-FLAG immunoprecipitation from 293T cells, Western blot with anti-p23 (FIG. 5D). The protocol: as §1

The next test concerns the target T3, FLAG-HSP90AB1 (K574A) (human, UniProt P08238 1-724).
T3 construct: Expressed in 293T cells in the presence of HA-SMYD2; not shown: FLAG tag
Description: anti-FLAG immunoprecipitation from 293T cells, Western blot with anti-p23 (FIG. 5E). The protocol:
as §1

T1 sequence (P08238 whole entry): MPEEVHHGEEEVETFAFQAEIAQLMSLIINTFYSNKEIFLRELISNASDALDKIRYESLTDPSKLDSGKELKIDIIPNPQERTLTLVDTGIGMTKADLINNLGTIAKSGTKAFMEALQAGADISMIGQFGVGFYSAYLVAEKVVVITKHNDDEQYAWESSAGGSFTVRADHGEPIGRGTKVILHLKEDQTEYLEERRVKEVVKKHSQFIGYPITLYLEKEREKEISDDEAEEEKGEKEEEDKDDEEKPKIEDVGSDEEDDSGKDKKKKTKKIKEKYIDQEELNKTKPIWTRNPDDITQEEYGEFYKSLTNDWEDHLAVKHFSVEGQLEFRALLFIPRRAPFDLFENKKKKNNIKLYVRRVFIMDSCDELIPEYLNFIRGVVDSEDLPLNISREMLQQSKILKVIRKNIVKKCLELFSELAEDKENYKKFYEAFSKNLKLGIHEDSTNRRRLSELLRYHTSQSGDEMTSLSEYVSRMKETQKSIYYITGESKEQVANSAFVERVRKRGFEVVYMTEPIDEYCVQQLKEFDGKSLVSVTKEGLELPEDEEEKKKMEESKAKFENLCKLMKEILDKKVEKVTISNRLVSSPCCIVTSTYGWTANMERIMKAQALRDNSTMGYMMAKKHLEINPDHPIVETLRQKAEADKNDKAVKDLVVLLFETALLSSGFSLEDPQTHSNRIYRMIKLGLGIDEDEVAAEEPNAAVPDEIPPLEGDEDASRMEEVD
T3 sequence (P08238 whole entry K574A): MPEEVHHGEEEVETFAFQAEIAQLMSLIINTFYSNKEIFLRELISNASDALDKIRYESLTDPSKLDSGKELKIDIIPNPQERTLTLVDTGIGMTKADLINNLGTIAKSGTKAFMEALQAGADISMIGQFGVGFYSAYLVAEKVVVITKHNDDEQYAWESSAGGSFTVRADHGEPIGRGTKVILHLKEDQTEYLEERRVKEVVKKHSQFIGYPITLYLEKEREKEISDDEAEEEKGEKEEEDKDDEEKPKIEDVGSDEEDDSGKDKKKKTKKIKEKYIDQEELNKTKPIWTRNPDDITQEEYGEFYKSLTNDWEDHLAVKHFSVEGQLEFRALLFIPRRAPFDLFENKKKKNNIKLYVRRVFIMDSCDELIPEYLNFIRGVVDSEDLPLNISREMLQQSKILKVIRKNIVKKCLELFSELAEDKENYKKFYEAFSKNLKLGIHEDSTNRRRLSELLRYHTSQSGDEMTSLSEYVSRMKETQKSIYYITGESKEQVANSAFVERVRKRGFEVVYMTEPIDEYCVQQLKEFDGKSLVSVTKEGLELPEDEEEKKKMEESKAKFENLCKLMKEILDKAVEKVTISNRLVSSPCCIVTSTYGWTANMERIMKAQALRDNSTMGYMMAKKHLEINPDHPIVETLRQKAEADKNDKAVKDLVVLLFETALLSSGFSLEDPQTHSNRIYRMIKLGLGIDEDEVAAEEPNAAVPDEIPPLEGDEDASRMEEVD
T2 sequence (P08238 whole entry K531A/K574A): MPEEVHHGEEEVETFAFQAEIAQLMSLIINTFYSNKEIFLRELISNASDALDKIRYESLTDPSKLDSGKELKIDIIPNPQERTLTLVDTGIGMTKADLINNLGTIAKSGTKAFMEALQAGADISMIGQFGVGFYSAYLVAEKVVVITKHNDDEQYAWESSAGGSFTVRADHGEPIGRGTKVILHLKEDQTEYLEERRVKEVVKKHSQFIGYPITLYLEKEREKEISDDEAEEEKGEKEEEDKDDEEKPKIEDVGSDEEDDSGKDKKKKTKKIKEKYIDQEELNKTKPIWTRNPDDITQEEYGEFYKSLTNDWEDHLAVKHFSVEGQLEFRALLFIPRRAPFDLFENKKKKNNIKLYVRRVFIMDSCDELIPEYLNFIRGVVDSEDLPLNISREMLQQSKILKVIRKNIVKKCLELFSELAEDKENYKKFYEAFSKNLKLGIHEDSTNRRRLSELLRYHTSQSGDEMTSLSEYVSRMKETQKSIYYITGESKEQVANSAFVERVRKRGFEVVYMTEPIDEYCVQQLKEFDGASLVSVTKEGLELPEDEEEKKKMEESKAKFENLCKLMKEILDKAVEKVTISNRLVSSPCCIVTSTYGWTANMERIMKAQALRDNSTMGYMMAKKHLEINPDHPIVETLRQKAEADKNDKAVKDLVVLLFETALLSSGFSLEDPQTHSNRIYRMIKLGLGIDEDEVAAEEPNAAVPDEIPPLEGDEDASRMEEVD

B1: Cdc37 (other, UniProt Q16543 1-378, looked up)
chain: MVDYSVWDHIEVSDDEDETHPNIDTASLFRWRHQARVERMEQFQKEKEELDRGCRECKRKVAECQRKLKELEVAEGGKAELERLQAEAQQLRKEERSWEQKLEEMRKKEKSMPWNVDTLSKDGFSKSMVNTKPEKTEEDSEEVREQKHKTFVEKYEKQIKHFGMLRRWDDSQKYLSDNVHLVCEETANYLVIWCIDLEVEEKCALMEQVAHQTIVMQFILELAKSLKVDPRACFRQFFTKIKTADRQYMEGFNDELEAFKERVRGRAKLRIEKAMKEYEEEERKKRLGPGGLDPVEVYESLPEELQKCFDVKDVQMLQDAISKMDPTDAKYHMQRCIDSGLWVPNSKASEAKEGEEAGPGDPLLEAVPKTGDEKDVSV
notes: Endogenous in 293T cell lysate
Turning to B1, the binding result in the test with FLAG-HSP90AB1 (WT) [1] was “binds”.

B2: p23 (other, UniProt Q15185 1-160, looked up)
chain: MQPASAKWYDRRDYVFIEFCVEDSKDVNVNFEKSKLTFSCLGGSDNFKHLNEIDLFHCIDPNDSKHKRTDRSILCCLRKGESGQSWPRLTKERAKLNWLSVDFNNWKDWEDDSDEDMSNFDRFSEMMNNMGGDEDVDLPEVDGADDDSQDSDDEKMPDLE
notes: as for B1
Turning to B2, the binding result (with FLAG-HSP90AB1 (WT) [2]; in test [3]; in the test with FLAG-HSP90AB1 (K574A)) was “binds” each time.

For the origin of these results see patent US20140308678A1 (ONCOTHERAPY SCIENCE, published 2014).
